# Measurements reported in patent US20210009693A1 (MABSPACE BIOSCIENCES SUZHOU, published 2021).
# Assays:
# [1] = target: T1, Recombinant Human PD-L1/CD274 Protein (hPD-L1-his) (human, UniProt Q9NZQ7 19-238); assay: ELISA on coated hPD-L1-his; bound at pH7.4, then 2 h at pH7.4
# T1 construct: range 19-238; ACRO Biosystem PD1-H5229, made in HEK293; also called human PD-L1-his; hPD-L-his
# Description: (§1) The pH-dependent binding affinity was further measured at various pH values, such as pH4, pH4.5, pH5.0, pH5.5, pH6.0, pH7.4. The measurement by ELISA was conducted similarly to the method described above. High-binding clear polystyrene 96 well plates were coated with 100 μl/well of a 0.5 μg/ml hPD-L1-his in high pH coating buffer and incubated overnight at 4° C. Then the coated plates were washed 3 times with shaking for 10s on an automatic plate washer with PBS+0.1% Tween 20 (Amresco). Then 200 μl of blocking buffer (1% BSA (Solarbio)+1% normal goat serum (Solarbio)+0.05% Tween 20 (Amresco)) was added to each well and the plates were then incubated for 2 hours at room temperature and washed 3 times as above. […] The plates were then washed once with 250 μl/well washing buffer at pH7.4, pH6.0, pH5.5, pH5.0, pH4.5 or pH4.0 and then 100 μl/well pH7.4 or pH5.5 washing buffer was added and the incubation was continued for 2 hours at RT with shaking. Afterwards, the plates was washed 3 times washing buffer at pH7.4 and 100 μl/well of a solution of HRP conjugated goat anti-hIgG HRP antibody (1:20000, Abcam) in pH7.4 dilution buffer was then added to each well of the plate. After that the plates were allowed to incubate for 60 min at room temperature followed by washing 3 times with 250 μl/well pH7.4 washing buffer. Finally, 100 μl/well of TMB was added to each well for 15 min and the reaction was terminated using 50 μl/well of 0.16M/L sulfuric acid. The plates were read on a Thermo Multiscan FC at 450 nm (see FIG. 23A-23F). The measurements were performed in triplicate.
# [2] = target: T1, Recombinant Human PD-L1/CD274 Protein …; assay: ELISA, coated hPD-L1-his, acidic wash and incubation after binding at pH7.4
# Description: as §1
# [3] = target: hPD-L1 (antigen of the Biacore assay) (human, UniProt Q9NZQ7 19-238, limits assumed); assay: SPR (Biacore), antibody captured on anti-human Fc, antigen in flow
# Description: A CM5 sensor chip was activated in each flow cell by 7-min injection (10 μl/min) of freshly prepared 1:1 50 mM N-hydroxysuccinimide (NHS): 200 mM 1-ethyl-3-(3-dimethylaminopropyl)-carbodiimide (EDC). Then anti-human Fc antibody (GE Healthcare) in a concentration of 10 μg/ml in 10 mM sodium acetate buffer PH 5.0 was injected onto the activated chip at 10 μl/min (HBS-EP running buffer: 10 mM HEPES, 150 mM NaCl, 3.4 mM EDTA, 0.005% surfactant P20, pH 7.4). The remaining active coupling sites were blocked by 7 min injection of 1M ethanolamine at 10 μl/min. The immobilization level of each flow cell is ˜9000RU. Antibodies were captured in FC2 by anti-human Fe IgG (GE Healthcare) to 200˜300RU. FC1 was used as the reference cell. Antigen was injected at varying concentrations after capture of antibody. The association time for antibody binding antigen is 180s. Surface Regeneration condition is 120s at 10 μl/min in Gly pH1.5. The signals with captured antibody subtracted from those without captured antibody were calculated with Biacore X100 evaluation software ver. 2.0 (Biacore).
# [4] = target: T2, Human PD-L1/CD274 with C-Fc Tag (hPD-L1-Fc) (human, UniProt Q9NZQ7 19-238); assay: blocking ELISA on coated hPD-L1-Fc; blocked ligand: biotinylated hPD-1-N297A
# T2 construct: range 19-238; ACRO Biosystem PD1-H5258, made in HEK293; also called human PD-L1-Fc; not shown: Fc fragment of human IgG1 at C-terminus
# Description: High-binding clear polystyrene 96 well plates (Nunc) were coated with 100 μl/well of coating solution consisting of 1 μg/ml hPD-L1-Fc overnight at 4° C. Then the plates were washed once on an automatic plate washer using washing buffer (PBS+0.1% Tween 20 (Sigma)). 200 μl of blocking buffer (PBS+1% BSA+1% normal goat serum+0.05% Tween-20) was added to each well and incubated 2 hours at room temp. […] The plates were then washed 3 times using the method described above. […] After the plates were washed 3 times, 100 μl/well of a solution of 1:5000 diluted HRP conjugated Neutravidin antibody (Pierce) in dilution buffer was then added to each well of the plate. After that the ELISA plates were allowed to incubate for 60 min at RT, then the plates were washed 3 times with 250 μl/well washing buffer. Finally, 100 μl/well of TMB was added to each well and the reaction was terminated using 0.64M H₂SO₄. The plates were read on a Thermo Multiscan FC at 450 nM (see FIG. 18A to 18D).
# [5] = target: T1, Recombinant Human PD-L1/CD274 Protein …; assay: ELISA on coated hPD-L1-his
# Sequence of hPD-L1 (antigen of the Biacore assay) (Q9NZQ7 19-238 limits assumed): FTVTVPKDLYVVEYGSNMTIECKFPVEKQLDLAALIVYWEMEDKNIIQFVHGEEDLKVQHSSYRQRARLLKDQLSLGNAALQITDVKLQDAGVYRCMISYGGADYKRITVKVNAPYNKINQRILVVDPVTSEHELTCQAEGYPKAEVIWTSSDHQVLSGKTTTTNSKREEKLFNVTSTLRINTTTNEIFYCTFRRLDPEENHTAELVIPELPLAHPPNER
# T1 sequence (Q9NZQ7 other isoform, or with tags, fused parts or gaps limits assumed): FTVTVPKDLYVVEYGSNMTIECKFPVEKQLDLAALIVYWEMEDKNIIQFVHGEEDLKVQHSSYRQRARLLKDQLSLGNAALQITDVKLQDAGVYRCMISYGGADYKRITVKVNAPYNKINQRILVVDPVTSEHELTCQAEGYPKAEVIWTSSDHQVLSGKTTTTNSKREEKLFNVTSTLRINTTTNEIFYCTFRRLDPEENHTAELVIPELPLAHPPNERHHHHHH
# T2 sequence (Q9NZQ7 19-238 limits assumed): as the sequence (Q9NZQ7 19-238 limits assumed) above
Binder,EC50 (read off the curve) [1] [µg/mL],binding signal at pH5 as percent of the signal at pH7.4 [2] [%],binding signal at pH5.5 as percent of the signal at pH7.4 [2] [%],Kd [3] [nM],koff [3] [s⁻¹],kon [3] [M⁻¹ s⁻¹],IC50 (read off the curve) [4] [µg/mL],EC50 (read off the curve) [5] [ng/mL]
"22C9-C (antibody, V domains shown, Mouse variable regions fused to a human IgG1 constant region; also called 22C9-chimeric; chimeric antibody 22C9) VH: QVQLQQSGAELVKPGASVKLSCKASGYTFTSYWMHWVWQRPGQGLEWIGMIHPNSDITNCNENFKHTVTLTVDKSSSTAYMQLSSLTSEDSAVFYCARSDGSSYWYFDVWGTGTTVTVSS VL: SIVMTQTPKFLSVSAGDRVTITCKAGQSVNNDVAWYQQKPGQSPKLLIYYASNRYTGVPDRFTGSGYGTDFTFTISTVQAEDLAVYFCQQDFSSPLTFGAGTKLELK",~0.06,< 50,< 75,–,–,–,–,–
"23A11-H3L3 (antibody, V domains shown, Humanized; also called humanized 23A11 H3L3) VH: LVQLVQSGAEVKKPGASVKLSCKASGYIFTTYWIHWVKQRPGQGLEWIGMIQPNSGGTKYNDQFKNRATLTVDKSISTAYMELSRLTSDDTAVYYCARGAGTVDYFDYWGQGTTLSISS VL: DIVLTQSPASLAVSVGQRATITCRASESVDIYGNSFMHWYQQKPGQSPKLLIYRASNLESGIPARFSGSGSRTDFTLTINPVEANDTATYYCHQSNDDPYTFGGGTKLETK",–,–,–,74.1,0.0542,732000,~0.07,~2
"23A11-H5L5 (antibody, V domains shown, produced in 293 cells; also called humanized 23A11 H5L5) VH: LVQLVQSGAEVKKPGASVKVSCKASGYIFTTYWIHWVRQAPGQGLEWIGMIQPNSGGTKYNDQFKNRVTLTVDTSISTAYMELSRLRSDDTAVYYCARGAGTVDYFDYWGQGTTLSISS VL: DIVLTQSPASLAVSVGQRATITCRASESVDIYGNSFMHWYQQKPGQAPKLLIYRASNLESGIPARFSGSGSRTDFTLTINPVEANDTATYYCQQSNDDPYTFGGGTKLETK",–,–,–,–,–,–,~0.1,~2
